{"source": "the nanobody polyreactivity screen of Harvey et al. (2022)", "data": [{"assay": "yeast display, Sf9 membrane polyspecificity reagent, FACS + sequencing; frameworks hold sequencing errors", "outline": "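Polyreactivity labels are assigned by the sorting gate from which each nanobody was recovered. The gates were low and high (top ~1%), set on anti-HA fluorescence for expression and streptavidin fluorescence for reagent binding. Before sorting, galactose-induced (36–48 hours) yeast display cells were stained for 1 hour at 4 °C with 10% biotinylated, detergent-solubilized Sf9 membrane reagent.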", "values": [{"sequence": "QVHLVESGGPLVQAGGSLRLSCAASGYTFWGNAMGWYRQAPGKERELVAGITGSGVSTYYADSVKGRFTISRDNAKNTVYLQMNNLKPEDTAVYYCARRVVFAHKYATSYFLLEYGYWGQGTQVSVSS", "polyreactivity (PSR sort gate)": "low polyreactivity"}, {"sequence": "QVQLVESGGGLVQAGGSLRLSCAASGSILDGYDMGRYRQAPGKERDLDAAISTNSDRTYYADSVKGRFTISRDNAKNTVYLQMNSLKPEDTAVYYCNARKRRRAGYPYDYWGQGTQVTVSS", "polyreactivity (PSR sort gate)": "high polyreactivity"}, {"sequence": "QVQHVESGGGLVQAGGSLRLSCAASGRTFRANTMGWYRQAPGKERELVASIRGNGGTTYYADSVKGRFTISRDNAKNTVYLQMNSLKPEDTAVYYCAAGLYYIRWSRRYEYWGQGTQVTVSS", "polyreactivity (PSR sort gate)": "high polyreactivity"}, {"sequence": "QVQLVESGGGLVQAGGSLRLSCAASGRIFGYYAMGWYRQAPGKERELVATITFGGGSTYYADSVKGRFTISRDNAKNTVYLQMNSLKPEDTAVYFCAADSGYLGIYGDEYSWGQGTQVTVSS", "polyreactivity (PSR sort gate)": "low polyreactivity"}, {"sequence": "QVQLVESGGGLVQAGGSLRLSCAASGSIGVYAMGWYRQSPGKERELVAGISRSGSSTFFADSVKGRFTISRDNAKNTVYLQMNSLKPEDTAVYYCTAYTYNYRQGSEYYYWGQGTQVTVSS", "polyreactivity (PSR sort gate)": "high polyreactivity"}, {"sequence": "QVQLVESGGGLVQAGGSLRLSCAASGGTFRANAMVWYRQAPGKERELVAAISFRGGTTYYADSVKGRFTISRDNAKTTVYLQMNSLKPEDTAVYYCAAGRRGSYYYWGQGTQVTVSS", "polyreactivity (PSR sort gate)": "high polyreactivity"}, {"sequence": "QVQLVESGGGLVQAGGSLRLSCAASGSTSVKYAMGWYRQAPGKERELVAAIRKRGDSTYYADSVKGRFTISRDNAKYSVYLQMNSLKAEDTAVYYCAAQYLRGRGYWGQGTQVTVSS", "polyreactivity (PSR sort gate)": "low polyreactivity"}, {"sequence": "QVQLVESGGGLVQAGGSLRLSCAASGRTFSKYAMGWYRQAPGKERELVAAISSGGSTNYADSVKGRFTISRDNAKNTVYLQMISLKPEDTAVYYFARTTNWRHSYAYYYLHGHDYWGQGTQVTVSS", "polyreactivity (PSR sort gate)": "high polyreactivity"}, {"sequence": "QVQLVESGGGLVQAGGSLRLSCAASGRIFGYYAMGWYRQAPGKERELVARISSSGGSTYYADSVKGRFTISRDNAKNTVYLQMNSLKPEDTAVYYCNTASNRYPGWRAEFDYWGQGTQVTVSS", "polyreactivity (PSR sort gate)": "low polyreactivity"}, {"sequence": "QVQLVESCGGLVQAGGSLRLSCAASGSTFRFYAMGWYRQAPGKERELVAAINGSGGSTYYADSVKGRFTISRDNAKNTVYLQMNSLKPEDTAVYYCAVLYRYGYDYWGQGTQVTVSW", "polyreactivity (PSR sort gate)": "low polyreactivity"}, {"sequence": "QVQLVESGGGLVQAGGSLRLSCAASGSIFPYYAMGWYRQAPGKERELVASISRSVGSTFYADSVKGRFTISRDNAKNTVYLQMNSLKPEDTAVYYCAVRYFAQFGDYDYWGQGTQVTVSS", "polyreactivity (PSR sort gate)": "high polyreactivity"}, {"sequence": "QVQLVESGGGLDQAGGSLRLSCAASGITFYDYAMGWYRQAPGKEREFVASITSSGGSTYYADSVKGRFTISRDNAKTTVYLQMNSLKPQDPAVYYCAARGYNPYGRKVGYWGQGTQVTVSS", "polyreactivity (PSR sort gate)": "high polyreactivity"}, {"sequence": "QVQLVESGGGLVQAGGSLRLSCAASGRIFGRYAMGWYRQAPGKEREFVATITSRGGNTYYADSVKGRFTISRDTAKNSVYLQMNSLKPEDTAVYYCNADYLWFNFYYWGQGTQVTVSS", "polyreactivity (PSR sort gate)": "low polyreactivity"}, {"sequence": "QVQLVESGGGLVQAGGSLRLSCAASGFILPIYAMGWYRQAPGKEREFVAAITWTGGSTYYADSVKGRFTISRDTAKNNVFLQIHSLKPEDTAVYYCAKRYYLRGYGRYYYWGQGTQVTVSS", "polyreactivity (PSR sort gate)": "high polyreactivity"}, {"sequence": "QVQLVESGGGLVQAGGSLRLSCAASGSTFAYNAMGWYRQAPGKERELVAAISWRGGSTYYADSVKGRFTISRDNAKNTVYLQMNSLKPEDTAVYYCAALYPYKREDYWGQGTQVTVSS", "polyreactivity (PSR sort gate)": "high polyreactivity"}, {"sequence": "QVQLVESGGGLVQAGGSLRLSCADSGSTFSYNAMGWYRQAPGKERELVATITYSGTSTHYADSVKGRFTISRDNAKNTVYLQMNSLKPEDTAVYYCNAYSKGWGLPDDYWGQGTLVTVSS", "polyreactivity (PSR sort gate)": "low polyreactivity"}, {"sequence": "QVQLVESGGGLVQAGGSLRLSCAASGSIFITYAMGWYRQPPGKERELVATITSRSGGTYYADSVKGRFTISRDNAQNTVYLQMNSLKPEDTAVYYCNAVYTYPVFHGMGYWGQGTQVTVSS", "polyreactivity (PSR sort gate)": "high polyreactivity"}, {"sequence": "QVQLVESGGGLVQAGGSLRLSCAASGSTFFLYDKGWYRQAPGKERELVAAITLSGGSTYYADSVKGRFTISRDNAKNTVYLQMNSLNPEDTAVYYCADKRHGSEVGRGRDYWGQGTQVTVSS", "polyreactivity (PSR sort gate)": "high polyreactivity"}, {"sequence": "QVQLVESGGGLVQAGGSLRLSCAASGRTFYDYAMGWYRQAPGKEREFVARITYSGGGTYYADSVKGRFTISRDNAKNTVYLQMNSLKPEDTAVYYCARPFIRYLGLTRNGYTSDYWGQGTQVTVSS", "polyreactivity (PSR sort gate)": "high polyreactivity"}, {"sequence": "QVQLVESGGGLVQAGGSLRLSCAASGSTFRPYAMGWYRQAPGKERELVAAITSTDVNTYYADSVKGRFTISRDNAKNTVYLQMNSLKPEDTAVYYCAAVYLGYYGVSDMEYWGQGTQVTVSS", "polyreactivity (PSR sort gate)": "high polyreactivity"}, {"sequence": "QVQLVESGGGLVQAGGSLRLSCAASGFIFDWYAMGWYRQAPGKERELVAAINESGGDTYYADSVKGRFTISRDNAKNTVYLQMNSLKPEDTAVYYCAARTYHRYDYWGQGTQVTVSS", "polyreactivity (PSR sort gate)": "high polyreactivity"}, {"sequence": "QVQLVESGGGLVQAGGSLRLSCASSGRTFRYNAKGWYRQAPGKERELVAAISWSGGGTYYSDSVKGRFTISRDNAKNTVYLQMNSLKPEDTAVYYCAAEEQIPLTNNSKYYYWGQGTQVTVSS", "polyreactivity (PSR sort gate)": "low polyreactivity"}, {"sequence": "QVQLVESGGGLVQAGGSLRLSCAASGITFFGYAMGWYRQAPGKERELVATISRSGGSTSYADSVKGRFTISRDNAKNTVYLQMNSLKPEDTAVYYCNNRTPYLRPIMDYWGQGTQVTVSS", "polyreactivity (PSR sort gate)": "high polyreactivity"}, {"sequence": "QVQLVESGGGLVQAGGSLRLSCAASGRIFKFYTMGWDRQAPGKERELVASIDSTGGSTYYADSVKGRFTISRDNAKNTVYLQMNSLKPEDTAVYYCAAEWIWSSNWYKKYDYWGQGSQVTVSS", "polyreactivity (PSR sort gate)": "high polyreactivity"}, {"sequence": "QVQLVESGGGLVQAGGSLRLSCAASGRIFGGYAMGWYRQAPGKERELVAAITQSGGSTYYADSVKGRFTISRDNAKNTVYLQMNSLKPEDTAVYYCATYAWYIFGYWGQGTQVTVSS", "polyreactivity (PSR sort gate)": "low polyreactivity"}, {"sequence": "QVQLVESGGGLVQAGGSLRVICAASGSTFSGNAMGWSRKAPGKERELVAAISRRGGRTYYADSVKGRFTISRDNAKNTVFLQMNRLKPEDTAVYYCAATSGVYRVGIIKYDYWGQGTQVTVSS", "polyreactivity (PSR sort gate)": "high polyreactivity"}, {"sequence": "QVQLVESGGGLVQAGGSLRLSCAASGRIFRQYAMGWYRQAPGKEREFVAGISTTGGSTYYADSVKGRFTISRDNAKNTVYLQMNSLKPEDTAVYYCAVRINWSRWYHYYTYNYWGQGTQVTVSS", "polyreactivity (PSR sort gate)": "high polyreactivity"}, {"sequence": "QVQLVESGGGLVQAGGSLRISCAASGIIFPQYTMGWYRPAPGKERELVAVITSGGSTYYADSVKGRFTISRDNAKNTVYLQMNSLNPEDTAVYYCAAETETYWWTFITREYDYWGQGTQVTVSS", "polyreactivity (PSR sort gate)": "high polyreactivity"}, {"sequence": "QVQHVESGGGLVQAGGSLRLSCAASGSIFVPYAMGWYRQAPGKERELVAAISSRGGRTYYADSVKGRFTISRDNAKNTVYLQMISLKPEDTAVYYCNKTAGSHIPRLEYWGQGTQVTVSS", "polyreactivity (PSR sort gate)": "low polyreactivity"}, {"sequence": "QVQLVESGGGLVQAGGSLRLSCAASGSIFTVYAMGWYRQAPGKESELVAGITRRGSTYYADSVKGRFTISRDNAKNTFYLLMNRLKPEDTAVYYCAASRWVLESSGRVNWYDYWGQVTQVTVSS", "polyreactivity (PSR sort gate)": "low polyreactivity"}, {"sequence": "QVQHVESGGRLVQAGGSLRLSCAASGSTLDVYAMGWYRQAPGKERELVAAISWSVGSTYYADSVKGRFKISRDNAKNTVYLQMNRLKPEDTAVYYCAAEPYEYAYFGYDYWGQGTQVTVSS", "polyreactivity (PSR sort gate)": "high polyreactivity"}, {"sequence": "QVQHVDSGVCLVQAGGSLRLSCDASGSIFGSYAMGWYRQPPGKERELVAAISKSVGNTYYADSVKGRFTISRDNAKNTVYLQMNSLKPEVTAVYYCAAYGFYRWRGYDYWGQGTQVTVSS", "polyreactivity (PSR sort gate)": "high polyreactivity"}, {"sequence": "QVQLVESGGGLVQAGGSLRLSCAASGFIFRYYAMGWYRQAPGKERELVAAISRTGGSTYYADSVKGRFTISRDNAKNTVYLQMNSLKPEDTAVYYCAADWWAWRAYYYWGQGTQVTVSS", "polyreactivity (PSR sort gate)": "high polyreactivity"}, {"sequence": "QVQLVESGGGLVQAGGSLRISCAASGFAFSYYAMGWYRQAPGKEREFVASIDWSGGSTYYADSVKGRFTISRDNAKNTVYLQMNSLKPEDTAVYYCAAELDYFPGYDYWGQGTQVTVSS", "polyreactivity (PSR sort gate)": "low polyreactivity"}, {"sequence": "QVQLVESGGGLVQAGGSLRLSCAASGFTFPAYAMGWYRQAPGKERELVAAISSRGGSTYYADSVKGRFTISRDNAKNTVYLQMNSLKPEDTAVYYCASRRANGYYYWGQGTQVTVSS", "polyreactivity (PSR sort gate)": "high polyreactivity"}, {"sequence": "QVQLVESGGGLVQAGGSLRLSCAASGRTYPGNAMGWYRPAPGKERELVAAISWSGTRTYYADSVKGRFTISRDNAKNTVYLQMNSLKPEDTAVHFCNVVVKGAWDYYPYDYWGQGTQVTVSS", "polyreactivity (PSR sort gate)": "high polyreactivity"}, {"sequence": "QVQLVESGGGLVQAGGSLLLSCAASGITFSYYAMGWYRQAPGKERELVAAISRTGTSTYYADSVKGRFTISRDNAKNTVYLQMKSLKPEDTAVYYCAAVPRHPYHDKYDYWGQGTQVTVSS", "polyreactivity (PSR sort gate)": "high polyreactivity"}, {"sequence": "QVQLVESGGGLVQAGGSLRLSCAASGFIFDYYAMGWYRQAPGKERELVAAITSRSGSTYYADSVKGRFTISRDNAKNTVYLQMNSLKPEDTAVYYCSRRFKYGSTAWRFYYWGQGTQVTVSS", "polyreactivity (PSR sort gate)": "high polyreactivity"}, {"sequence": "QVQLGETRGGLVQAGGSLRLSCAASASIFAPYAMGGYRQAPGKERELVAAITWSGDSTYYADSVKGRFTISRDNAKYTVYLQMNSLKPEDTAVYYCATEEVYGQGNYWGQGTQVTVSS", "polyreactivity (PSR sort gate)": "low polyreactivity"}, {"sequence": "QVQLVESGGGLVQAGGSLRLSCAASGITFPYYVMGWYRQAPGKERELVAAISKSVGRTYYADSVKGRFTISRDNAKNTVYLQMNSLKPEDTAVYYCAAYSSYYVHRFQHYDYWGQGTQVTVSS", "polyreactivity (PSR sort gate)": "high polyreactivity"}]}]}
